The labels stand for the following.
B1: COP1‐His (natural protein)
chain: MEEISTDPVVPAVKPDPRTSSVGEGANRHENDDGGSGGSEIGAPDLDKDLLCPICMQIIKDAFLTACGHSFCYMCIITHLRNKSDCPCCSQHLTNNQLYPNFLLDKLLKKTSARHVSKTASPLDQFREALQRGCDVSIKEVDNLLTLLAERKRKMEQEEAERNMQILLDFLHCLRKQKVDELNEVQTDLQYIKEDINAVERHRIDLYRARDRYSVKLRMLGDDPSTRNAWPHEKNQIGFNSNSLSIRGGNFVGNYQNKKVEGKAQGSSHGLPKKDALSGSDSQSLNQSTVSMARKKRIHAQFNDLQECYLQKRRQLADQPNSKQENDKSVVRREGYSNGLADFQSVLTTFTRYSRLRVIAEIRHGDIFHSANIVSSIEFDRDDELFATAGVSRCIKVFDFSSVVNEPADMQCPIVEMSTRSKLSCLSWNKHEKNHIASSDYEGIVTVWDVTTRQSLMEYEEHEKRAWSVDFSRTEPSMLVSGSDDCKVKVWCTRQEASVINIDMKANICCVKYNPGSSNYIAVGSADHHIHYYDLRNISQPLHVFSGHKKAVSYVKFLSNNELASASTDSTLRLWDVKDNLPVRTFRGHTNEKNFVGLTVNSEYLACGSETNEVYVYHKEITRPVTSHRFGSPDMDDAEEEAGSYFISAVCWKSDSPTMLTANSQGTIKVLVLAA
notes: COP1 (CONSTITUTIVELY PHOTOMORPHOGENIC 1) E3 ubiquitin ligase, Arabidopsis thaliana, full-length CDS cloned into pET-20b(+); also called COP1‐6His; source: E. coli BL21 (DE3), purified by Ni‐NTA Agarose beads; not shown: His6, C-terminal, kept

The target of one test is T1, GST‐CAM7 (Arabidopsis thaliana, UniProt P59220 1-149).
T1 construct: Vector pGEX-4T2; also called Calmodulin7; CAM7/ZBF3; source: E. coli BL21 (DE3), purified by Glutathione sepharose 4B beads
The test is described as follows: pull-down; 2 μg COP1‐His bound to Ni‐NTA beads; GST fusions or GST added in an equimolar ratio, overnight at 4°C; 50 mM Tris‐Cl pH 7.5, 100 mM NaCl, 0.2% glycerol, 0.1% triton, 1 mM EDTA, 0.1% NP‐40; anti‐GST immunoblot. The following applies: both partners purified. (Immunoblotting shows a protein as a band on a membrane.)

The test “COP1‐His” deals with B1. Described as above. The following applies: both partners purified.

On to B1, for which the binding result with GST‐CAM7 was “binds”.

B2: GST‐HY5 (natural protein, Arabidopsis thaliana, UniProt O24646 1-168, looked up)
chain: MQEQATSSLAASSLPSSSERSSSSAPHLEIKEGIESDEEIRRVPEFGGEAVGKETSGRESGSATGQERTQATVGESQRKRGRTPAEKENKRLKRLLRNRVSAQQARERKKAYLSELENRVKDLENKNSELEERLSTLQNENQMLRHILKNTTGNKRGGGGGSNADASL
notes: Positive control of the pull-down; also called ELONGATED HYPOCOTYL5; source: E. coli BL21 (DE3), purified by Glutathione sepharose 4B beads
On to B2, for which the binding result with COP1‐His was “binds”.

Values taken from article PMC6593147, “COP1 regulates the stability of CAM7 to promote photomorphogenic growth” (Plant Direct, 2019).
